In patent publication US20110274721A1 one finds fold higher reactivity than the parental clade B gp140ΔCFI data, which are given here for one substance.

In the test the target is gp140ΔCFI B(C-HR2) ext 2F5 (HIV-1 strain HXB2 (clade B); HIV-1 strain BaL (clade B); HIV-1; HIV-1 strain 97ZA012 (clade C)) (UniProt P04578). Kind of test: ELISA on Env from transfected 293 cells. (ELISA stands for enzyme-linked immunosorbent assay.)

As to monoclonal antibody 2F5, the fold higher reactivity than the parental clade B gp140ΔCFI lay within 20 to 30 fold.
